Paper PMC6717114

Legend:
[1] = target: Mouse Cdh23 EC1-2(D101G) (mouse); assay: single-molecule force spectroscopy
[2] = target: Mouse Cdh23 EC1-2 wild-type (mouse) (UniProt Q99PF4); assay: single-molecule force spectroscopy
Mouse Cdh23 EC1-2 wild-type (mouse), sequence (Q99PF4 24-228): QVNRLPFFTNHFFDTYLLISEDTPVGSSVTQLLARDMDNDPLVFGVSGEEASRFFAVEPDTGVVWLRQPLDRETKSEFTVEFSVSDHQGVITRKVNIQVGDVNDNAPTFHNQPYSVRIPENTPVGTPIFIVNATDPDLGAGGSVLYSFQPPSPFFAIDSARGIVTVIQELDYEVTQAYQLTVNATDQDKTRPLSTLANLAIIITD

Substance | koff [1] | koff [2]
Mouse Pcdh15 EC1-2 wild-type (from UniProt Q99PJ1-18 27-259) (domain or fragment) | 0.0097 s⁻¹ | –
Mouse Pcdh15 EC1-2(D157G) (domain or fragment) | – | 0.044 s⁻¹
